# Assay: label from the status in PepcDB records
row,Sequence,protein production
1,MNKFKLGSDFDHLVNSLSDVELLNLFIQSCSQTTINGVPVPRFPPEEIQKQFVGASYEHALYEAYLFYRHIKEYAQNLGVPLNKESKVLDFGCGWGRIIRFLFKDASDQNLLGIDVDPAMITLCNETLGRGIYKTASPHPPVEFISDNSLDIIFAYSVFSHLSEATAENWVKEFSRVLRPGGIFIATTQARYFLDFCQQFQEHPELIQTGWHKTLSQAFPDIHRAISDYENGKFVHSPTGAGDVRNSSFYGETVIPRTYIENHYEKYLKLQDFFDDVNRLPQALFVLQKILEHHHHHH,not failed
2,MNKGKFALLFTFAACFAVIVFFWLLAVPPENFTADRIVMVLLISPIFAILLAFNLSRFLKQHGYSLRQVHVALEQNIADFIYEFQRLVFIHLMPIAFLGALIFYYGEFTPAIAEFLSLFALIFALSPLLFLGISFFVAMLQVYERVRKKSLLRANFFNFWIWIHLFVILLIIISKVLVQPSELPFQKAYFKALNDGVFNLLIIATMNAIFGVTGRMVAREKFPILLHLSIPLVNSFVAVKILMA,failed
3,MNKHFLETLLQKHQQAGTFPSTSDICRLVTRILLVLFPEQTQAKYKDVADVEIQMGVYQKELTRLLGSMQKDLPAPANELSDAFMNELSVIYDKLLLDIQAILNGDPAARSEFEVIRAYPGFYAIAFYRMAHALYKLNIPLMPRIIMEYAHSKTGIDIHPGATIGKNFYIDHGTGIVIGETAHIGDNVKVYQGVTLGALSVSKDKADTKRHPTIEDNVIIYSGATILGGKTVVGHDSIIGGNVWLTESVQPFTRVYHKAQIEVIIKNADPSLNETENNEEAIRKMKKAESENTKKNS,failed
4,MNKKKKKRTPKPINLNELEEKINILNFMKNDFEIVLQKENEKHSEVSIQYTNKEESSTLERERINIILKELIISCNEKKEHLNNYIKVAKDIIQKNNETIEKEKNDIDKLILQKDEQIKDVEKKIVIVQNFYKDINKGIIQLINNLEVYLRNKMNINIDIKKMNDKTIELTNVQKLNKQQECKENEFKNILYMSIDKYNEQISIIRTFIKKIKLKQEIDVIKEDNIINTNDDILREPSNNTNEQKEQSHKYDYSHDENENNNFRKYEMINIEEENDKENNVKGDNKLIINKNNVDSFDEDDSYDEDDSCDEDNSCDEDNSCGEVNSCGEDDSYDEDDSYDEDDSYDEDNSYDEDNSYDEDNRCGEKLEKEQLHNLQDDKKNYTLKKNINETLLSSLDDDESKFSSSNSDTTKSFEVYKNKEKDKDKEIYNYLYSEEETYEQKKNNESSNSDDDDNKKEHFIKKFTTLKTNKNILNEDVQFLMDKIKKIDYDYISYFEKKLKYK,failed
5,MNKKRIVFGLLSFFLPIFLVFGGLLFFLLLLTSTSDTSKNDCIQPSINNPTDATDTPKSIEQFVKSHKDAYLLSWKAGGFLPSASISQTMVENGFNFTNPSGTSFWQAHNMGGVKTSKKEDFPVTLATFGQDSVDISGTKPGSNVGDGTGGAYTWFKDYNAGIVGKAEFMAHQTLYTGAINNTDGLSTLSAIYSGGWATDPTYLMKLQATYNSLGKQFQWLDQEAIQKYGNAPFKKSELVLNIPGKSPITNEKYGKNSDCVVTSDTSDQVTGQNTAPSLEVPSAYKGKLTLPPIDSNDYAGNNYPFGQCTWYAYNRMAQIGKPIEWFSGDGGNGAGWANSARAKGYTVVKVKPSVGWAASMQGGIGGSAPPYGHVAVVEYVNSDGSILVSEANVINQGSGTRSWRVLDRATVEQIDFIQGKGALEHHHHHH,failed
6,MNKPLVVDLDGTLLRSDMLIESVLAYSKKGIRPVFHLPFWLLEGKAILKARLADRVDLSVEVLPYNTEVIDFIKQAKREQRQIVLATGTHKMFAEKIAEHLGLFDLVIATENGINLSARSKRDCLIDQFGEKGFDYIGNSHDDVVVWNAADKTYLADPEPGVKKKMDLQGGVARVFQTRQSSLRTFFRALRPHQWLKNLLLFIPLIASHQLTNITLIADALLAFVLFSMTASSGYLINDLLDLESDRYHPRKRNRPLASGELPILIGLISAPLLFLASLSASLILLSATFTISLVTYYLLSVVYSQYLKKIPLVDTIMLAGLYTVRILAGAFACSIIPTFWILAFSVFFFLSLAMLKRYAELLDLQTKGDTAKTSGRGYYPSDIQIIASLGTASGYLSILVLALYIQDARTIAMYKTHELIWLACPILLFWISRMWMLTHRGQMHDDPVLFAIKDRTSLITATLFACIFFLAILV,failed
7,MNKPTLGIDLDTTLNTLDREWVKRYNEIYKDKLLPSDIKGWDIENYVKPECGKKIYDILKEPHFFRNLGVQPFAETALEELTSIFNIYIVSATHYKVCEDKGNWIKEKFPFISYQNIIFCHNKGLVHLDILIDDNPLNLENFKGNKILFDAHHNKSENRFVRARDWYEAKALCESLKDFL,failed
8,MNKQLRNNMIVLLFAVILSLILNVAHILLPFMFGPIIASVICVRVFRLEIEWPFWLSQIGLVLLGVQIGSTFTKNVILDIKDDWLTIILITVMLLALALVIAFFFKKIAKVNTETAILSVIPGALSQMLIMAEENKRANIMVVSLTQTSRIIFVVILVPFISYFFRDNGSNGSLEKATTKVLTDAVSIPQILLLALAVFIVYIIMSKINFPTKQLLAPIIVLISWNLITGVTFTLDNYIIASAQVIYMIRIGLQIAKLLDQMKGRIAVAIAFQNVLLILLAFIMVLLISMVSNHSVNELFLGAAPGGMSQIVLVAIETGADVALISSYHIFRIFFILFLIAPLLGHLLKYIDRSHS,failed
9,MNKQQQSMNTNRSAQEMSETSPEYEQKYQQAIDCIENQEYGQAISILDELAGEASRDAKLRYARAVALLSNGEYRRAGTDLAFTVALDRSNLEAYRHLGFVLLTMGKEEAAIKVLEEALRRDPCFVEAWCVLADVHMDLGEHDKALDALDRAHELQPGNAEVHCKLAMYYMSRGDMRGLRAEYEVLREIEPDVAAQIAELLP,failed
10,MNKRKMIGAHSALALLALAVSQVHAADPTVQQGREDRAEKAAQKTLAKMTMEEKLAYIGGTGGWDVKPLTNYGVPQIHGADGGVGVRYTSEGNDQGVVYPSGPNLAATFNPRRAIDLGRALGYDTATGGYQFITGPGVNLYRMPYGGRAFEYLSGEDPFLGASLAPGVINGIQSRGVWANAKHYAANDQESNRFNLDQKMPERVLREMSLPAFESSSKNGNVAMMMCAFQKVNGDFACESEHLIAQILKKEWGYKGFVQSDYNAVVHGFEAARAGTDLDMMGYQMNSSVLKPHLDAGDLSAATIDDKVRRILKQIYLYKFDSKAPLTTHNMNSSTSNKVALNAAREGIVLLKNQGDLLPLDKQKVKKIAVVGTLAKYAPPTGFGSANVMASHYVSELSGLQQMAPNAKVEFIDGLSLDPSTSAWNTTDAAGNSVQGMKVEYFSNTNWSGDAAVTRTEQHVDLDWANDKNLPFESNTSTSDPYTTKGSTAGELNGDTSSTSIRYTGKITPTQSGEQVFKVRADGAVRLWVNGKKIIDNGDGKPLPGNSIPPTIPEFAKINLEAGQSYDVKLEYSRRAGYLSTMGGLVGVQLSSASLNAPQDLSGYDAVVVAVGNSNEYEGEGFDHSFDLPEFQNELIQNIAKVNPNTVVTMYGGTGLKMSDWIEQVPVALHAFYPGQNGGQALAEILFGKINPSGKLPISIERNIEDNPAYASFPKFDNQNTLAEMDYKDDLMLGYRGYEKKGIKPLYPFGYGLSYTTFGYSNIKVTPGVAVGNTPIKVSFDLTNTGKVGGSEVAQLYVGQQNPKVERPIKELKGYKKVFLKPGESKRVTIELNDRSLAYFDVKTNQWVVDADTFNLSLGGSSQDIRLNAKLVNSFRQELSTTTSNPLPRSALNSVLVEKPPVKTGGVFQQTVE,failed
11,MNKRVVKVEYIFMAFALFFGVLFAVINAPFQDPDEPIHFYRAYQISTGQMFEQKNNSGIGGYLPQNLIKTSENLSEDIKAKSNKKQDINKIKYYLNLPLNKNKVAFNDFRSATIYSDIVYIPQSIGINLAKIFRASALYMMYFGRIANLICWTIIVFFSVKLIPFKKNLMAFLALTPMNLYQAASLSADAMTNSMAFLSIALVLRYAFGEEEAKLTKRQIVTMIIAFTLLAFSKRIYFVMCILFFIIPIKKFNSKKDYIGTFVIMLGACLMSLVTVSVISKILAIKVSAGSYTPGQMEFVLSHPITYIHILLRTFHFKMSFYAISFIGVFGWLDTRLPLNLYLFYGVALVLIALFEHTLIEKNKDRIIMFIVFIINVGLIMSALYVSWTPKAANIIEGIQGRYFIPIIPLLGCFIGVKANKSRNVYSKVVLAISTFTILTYSVLQLLLRFYGIRIL,failed
12,MNKTLIINAHPKVDDTSSVSIKVFKHFLESYKELISNNETIEQINLYDDVVPMIDKTVLSAWEKQGNGQELTREEQKVTERMSEILQQFKSANTYVIVLPLHNFNIPSKLKDYMDNIMIARETFKYTETGSVGLLKDGRRMLVIQASGGIYTNDDWYTDVEYSHKYLKAMFNFLGIEDYQIVRAQGTAVLDPTEVLQNAYKEVEEAASRLANKYIFSLEE,not failed
13,MNKVLINDTTLRDGEQAAGVVFTLEEKVAIAKFLDTIGVPELEVGIPAMGEEEMRAICAISNLGLKANLLAWNRAVISDIKASVACGMERVHIAIPVSGIQIAAKFHGQWRVSLQRLKDCISFAVDQGLWVAVGGEDSSRADENFLLDVALYAQEWGASRFRFCDTVGVLDPFTTYGKVKLLVSALTIPVEVHTHNDFGMATANALAGIKAGASSVNTTVIGLGERAGNAALEEVVMAIKRIYGVDMGIDTPRLLELSQLVAAASGANVPPWKAIVGENTFAHESGIHAHGVLQNPDTYEPFAPEEVGWERRLVVGKHSGRHSVSNLLEQHGIFLNPEETQSVLDAVRQQSIKKKRSLTTEELLNLVKEQRYSHAAR,failed
14,MNLDALVSWSRAQFALTAMYHWLFVPLTLGLGVIMAIVETIYYRNGKPEWKRYAQFWQKLFGINFAIGVATGIILEFEFGTNWSNYSLFVGDIFGAPLAIEGILAFFMEATFIAVMFFGWNKVSKGFHLSATWLTIIGASLSAVWILIANAWMQEPVGMTFNPDTMRNEMTDFWALVFSSTAINKFWHTISSCWTLGSVFALGVCGIYLLRKDDKHKDFALKNIKIIAPFGLAASLITAFTGDTSAYNVAQKQPMKLAAMEALYDSGQTDKDGLTADGKGLPLSLFGILNPAKETPQDDKEAFLFNVSVPRVLSVLGTRNPSGYVPGINNILEGGYVKADGTTAIPVDSMMQRGRRAIMALNDYSKAKQAGDMEAALQHKSVIDENFPYFGYSYIQHKNDIVPPVGLTYYSFRIMVGLGMLFILLFLMAWLLSFKPEKFSKMRWFHMIAIVCMPLAWVASQSGWIVAEVGRQPWTIQDLLPVQAAVSKLEAGSVIITFFVFLVLFSALLVAELNIMRKAIKKGPETE,failed
15,MNLFRKCLLILGLASPLYLGLGQTSAHAEAVPPLAPTTCQATNLPQPSTAAIRELTPTGTLRVAINTGNYVLATEADDFGPFGISVDIAHLLAKGLGVPSEFTVVQAAAVSFERVSKNLSDIGFFGVDPWRAESVDYTNPYIQIEGAYIVRQDSPILTLADVDRAGIQIVVGKNSVYNLFLDRNIHHAHLVQAPTSPEVTGFMLAHKFPVGAGIRNQLVADMKRYGGLRILSTSFMIIHQAMATGKGRPQGLSYLQSFISELKKSGCIQELITKYAVDDAVVSP,failed
16,MNLFRKISEKLKSYEDWVTEANYYLDEGIYDKAVECYLKALEKKNTNPIDWFNLAYALYHLEKYDSALEAINEALKISPSNIYFAYLKGLIHYKRGEIILAYKYLKKASEKIKNEELFEILGDISVKYGRYEEALKYYLKSYKMANSKNLNALFKAGKIYLLFGDIDKAYDAFNEILQQNPSHECKKIVECMENVVNAINSYEDLNNGLTMIKNKDYIGALKIFNKVLQIDENSDISYYYKSVIAEIFEEYKKALEYIDKSISIFNRSLYYAKKGDILYKLGDEEGAIEAYNKAIKLNSQNPYAYFGLAILYYRKGELEKSSNFFDKVLETYLEELSEEDISALNLYSLIGKAETTGIPKYYHEAMKYVDNLINLENSSRWWYVKGYIYYKLGNYKDAYESFMNALRVNPKDISTLKSLAIVLEKSGKIDEAITTYTKILKIVNSLQFTCEIDNILEKLRSRKPTNLEIPSVLFDIPVMYHKPNITCFYASNLWKYMANNNPIGAYIYLSFIESYISLDEISQMVNDIKSKLSLEMYRYCELIDDYKSDESVLMQIKELLQKLGCML,failed

# — a protein production outcome set (Wang et al. 2014)
